Here are results for four molecules from US20240190960A1 (Chugai, published 2024).

Broadly, the Kd is the equilibrium constant for the complex coming apart. Low values mean tighter binding, high ones weaker binding.

The target of test [1] is T1, Biotinylated human CD3εδ heterodimer (Fc-fused human CD3ε / Fc-fused human CD3δ) (human, biotin on the Avi tag (BirA)).
T1 chain 1: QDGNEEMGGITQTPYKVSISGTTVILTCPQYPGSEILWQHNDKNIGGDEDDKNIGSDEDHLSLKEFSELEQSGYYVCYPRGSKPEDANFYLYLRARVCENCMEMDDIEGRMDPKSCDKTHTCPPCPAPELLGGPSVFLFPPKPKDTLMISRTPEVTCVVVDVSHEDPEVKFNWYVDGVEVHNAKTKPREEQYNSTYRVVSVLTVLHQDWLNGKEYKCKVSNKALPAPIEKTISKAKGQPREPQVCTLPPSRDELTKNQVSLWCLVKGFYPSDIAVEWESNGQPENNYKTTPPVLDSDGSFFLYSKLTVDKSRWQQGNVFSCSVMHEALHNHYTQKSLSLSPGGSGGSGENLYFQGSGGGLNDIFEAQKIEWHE
T1 chain 2: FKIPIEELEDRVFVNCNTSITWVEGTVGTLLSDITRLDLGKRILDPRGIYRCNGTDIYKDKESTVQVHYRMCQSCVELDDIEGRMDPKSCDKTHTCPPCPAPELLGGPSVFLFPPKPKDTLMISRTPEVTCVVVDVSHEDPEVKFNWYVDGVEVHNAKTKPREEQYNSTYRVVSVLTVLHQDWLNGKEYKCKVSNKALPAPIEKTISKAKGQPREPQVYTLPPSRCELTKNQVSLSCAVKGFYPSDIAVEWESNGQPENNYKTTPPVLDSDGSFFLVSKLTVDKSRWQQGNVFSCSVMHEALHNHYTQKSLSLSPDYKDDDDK
Put plainly: BLI (Octet RED384), 37 C; biotinylated CD3εδ on streptavidin sensor, one-arm antibody in solution for 120 s (0-1000 nM used, the concentration shown is not given). The procedure:
Using an Octet RED 384 (ForteBio), a streptavidin sensor (ForteBio) was reacted with CD3εδ prepared at 0.2 μM in ACES at 37° C. for 300 seconds. […] Response values were extracted every three seconds, and graphs were depicted using Microsoft Excel 2013 (Microsoft).
Background: Biolayer interferometry detects binding as a change in optical thickness at a sensor tip.

The target in test [2] is T2, Human CD3εδ heterodimer (soluble human CD3ε with FLAG tag / soluble human CD3δ with His tag) (human, UniProt P07766 22-126; P04234 22-105).
T2 construct: Positions are counted from 1, so the entries may include the signal peptides
The test is described as follows: SPR (Biacore T200), BiAb captured on protein A, CD3εδ 0-15000 nM as analyte, 37 C. The procedure: (3) Evaluation of Binding Properties of Clamping Antibodies by SPR Using an Amine Coupling Kit (GE Healthcare), SuRe Protein A (GE Healthcare) Prepared at 25 μg/mL in Acetate4.5 (GE Healthcare) was Immobilized onto Sensor Chip CM4 at Approximately 1200 RU Per Flow Cell.
HBS-EP+(GE Healthcare) was used for the running buffer, and the measurement was carried out at 37° C. Each antibody was reacted at a flow rate of 10 μL/min for 60 seconds to capture 1000 RU, and analyte CD3εδ prepared at 0 nM, 4.8 nM, 24 nM, 120 nM, 600 nM, 3000 nM, or 15000 nM was allowed to act at a flow rate of 30 μL/min for 60 seconds to monitor the binding phase, and HBS-EP+ was passed at a flow rate of 30 μL/min for 120 seconds to monitor the dissociation phase. The sensor chip was regenerated by passing Glycine1.5 and 25 mM NaOH, each at a flow rate of 30 μL/min for 30 seconds. The dissociation constant KD (M) was calculated based on the association rate constant ka (1/Ms) and the dissociation rate constant kd (1/s), which are kinetic parameters calculated from the sensorgram obtained by the measurement. Biacore T200 Evaluation Software (GE Healthcare) was used for the calculation of each parameter.
(Surface plasmon resonance follows binding to a sensor surface in real time, without labels.)

B1: CE115HA000 one arm (CE115HA000-pE22Hh/GLS3000-k0//Kn010) (antibody, human IgG1, kappa, L234A L235A, N297A)
heavy: QVQLVESGGGVVQPGRSLRLSCAASGFTFSNAWMHWVRQAPGKGLEWVAQIKAKSNNYATYYAESVKGRFTISRDDSKNSLYLQMNSLKTEDTAVYYCRYVHYGAYYGVDAWGQGTTVTVSSASTKGPSVFPLAPSSKSTSGGTAALGCLVKDYFPEPVTVSWNSGALTSGVHTFPAVLQSSGLYSLSSVVTVPSSSLGTQTYICNVNHKPSNTKVDKKVEPKSCDKTHTCPPCPAPEAAGGPSVFLFPPKPKDTLMISRTPEVTCVVVDVSHEDPEVKFNWYVDGVEVHNAKTKPREEQYASTYRVVSVLTVLHQDWLNGKEYKCKVSNKALPAPIEKTISKAKGQPREPQVYTLPPSRCELTKNQVSLSCAVKGFYPSDIAVEWESNGQPENNYKTTPPVLDSDGSFFLVSKLTVDKSRWQQGNVFSCSVMHEALHNHYTQKSLSLSPDYKDDDDK
light: DIVMTQSPLSLPVTPGEPASISCRSSQSLVHSNRNTYLHWYQQKPGQAPRLLIYKVSNRFSGVPDRFSGSGSGTDFTLKISRVEAEDVGVYYCGQGTQVPYTFGQGTKLEIKRTVAAPSVFIFPPSDEQLKSGTASVVCLLNNFYPREAKVQWKVDNALQSGNSQESVTEQDSKDSTYSLSSTLTLSKADYEKHKVYACEVTHQGLSSPVTKSFNRGEC
chain: not shown
notes: also called one-arm antibody CE115HA000
Consider B1, for which the binding result in test [1] is listed as “binds”.

B2: BiAb of CE115HA000-BS03a/GLS3000-k0 with the IC17 arm (bispecific antibody, human IgG1, kappa, N297A)
heavy 1: QVQLVESGGGVVQPGRSLRLSCAASGFTFSNAWMHWVRQAPGKGLEWVAQIKAKSNNYATYYAESVKGRFTISRDDSKNSLYLQMNSLKTEDTAVYYCRYVHYGAYYGVDAWGQGTTVTVSSASTKGPSVFPLAPSSRSTSESTAALGCLVKDYFPEPVTVSWNSGALTSGVHTFPAVLQSSGLYSLSSVVTVPSSSLGTKTYTCNVDHKPSNTKVDKRVEPKSCDKTHTCPPCPAPELRRGPKVFLFPPKPKDTLMISRTPEVTCVVVDVSQEDPEVQFNWYVDGVEVHNAKTKPREEQFASTYRVVSVLTVLHQDWLNGKEYKCKVSNKGLPSSIEKTISKAKGQPREPQVYTLPPSREEMTKNQVSLTCLVKGFYPSDIAVEWESNGQPENNYKTTPPYLDSDGSFFLYSKLTVDKSRWQQGNVFSCSVMHEALHNHYTQESLSLSP
light 1: DIVMTQSPLSLPVTPGEPASISCRSSQSLVHSNRNTYLHWYQQKPGQAPRLLIYKVSNRFSGVPDRFSGSGSGTDFTLKISRVEAEDVGVYYCGQGTQVPYTFGQGTKLEIKRTVAAPSVFIFPPSDEQLKSGTASVVCLLNNFYPREAKVQWKVDNALQSGNSQESVTEQDSKDSTYSLSSTLTLSKADYEKHKVYACEVTHQGLSSPVTKSFNRGEC
heavy 2: QVQLQQSGPQLVRPGASVKISCKASGYSFTSYWMHWVNQRPGQGLEWIGMIDPSYSETRLNQKFKDKATLTVDKSSSTAYMQLSSPTSEDSAVYYCALYGNYFDYWGQGTTLTVSSASTKGPSVFPLAPSSRSTSESTAALGCLVKDYFPEPVTVSWNSGALTSGVHTFPAVLQSSGLYSLSSVVTVPSSSLGTKTYTCNVDHKPSNTKVDKRVEPKSCDKTHTCPPCPAPELRRGPKVFLFPPKPKDTLMISRTPEVTCVVVDVSQEDPEVQFNWYVDGVEVHNAKTKPREEQFASTYRVVSVLTVLHQDWLNGKEYKCKVSNKGLPSSIEKTISKAKGQPREPQVYTLPPSREEMTKNQVSLTCLVKGFYPSDIAVEWESNGQPENNYKTTPPYLDSDGSFFLYSKLTVDKSRWQQGNVFSCSVMHEALHNHYTQESLSLSP
light 2: DIQMTQSSSSFSVSLGDRVTITCKASEDIYNRLAWYQQKPGNAPRLLISGATSLETGVPSRFSGSGSGKDYTLSITSLQTEDVATYYCQQYWSTPYTFGGGTKLEVKRTVAAPSVFIFPPSDEQLKSGTASVVCLLNNFYPREAKVQWKVDNALQSGNSQESVTEQDSKDSTYSLSSTLTLSKADYEKHKVYACEVTHQGLSSPVTKSFNRGEC
notes: how the CE115/IC17 BiAb was made is not described
In test [2], B2 displayed a Kd of 0.35 µM.

B3: BiAb of CE115HA056-BS03a/GLS3000-k0 with the IC17 arm (bispecific antibody, human IgG1, kappa, N297A)
heavy 1: QVQLVESGGGVVQPGRSLRLSCAASGFTFSNAWMHWVRQAPGKGLEWVAQIKAKSNNYATYYAESVKGRFTISRDDSKNSLYLQMNSLKTEDTAVYYCRYAHYGAYYGVDAWGQGTTVTVSSASTKGPSVFPLAPSSRSTSESTAALGCLVKDYFPEPVTVSWNSGALTSGVHTFPAVLQSSGLYSLSSVVTVPSSSLGTKTYTCNVDHKPSNTKVDKRVEPKSCDKTHTCPPCPAPELRRGPKVFLFPPKPKDTLMISRTPEVTCVVVDVSQEDPEVQFNWYVDGVEVHNAKTKPREEQFASTYRVVSVLTVLHQDWLNGKEYKCKVSNKGLPSSIEKTISKAKGQPREPQVYTLPPSREEMTKNQVSLTCLVKGFYPSDIAVEWESNGQPENNYKTTPPYLDSDGSFFLYSKLTVDKSRWQQGNVFSCSVMHEALHNHYTQESLSLSP
light 1: DIVMTQSPLSLPVTPGEPASISCRSSQSLVHSNRNTYLHWYQQKPGQAPRLLIYKVSNRFSGVPDRFSGSGSGTDFTLKISRVEAEDVGVYYCGQGTQVPYTFGQGTKLEIKRTVAAPSVFIFPPSDEQLKSGTASVVCLLNNFYPREAKVQWKVDNALQSGNSQESVTEQDSKDSTYSLSSTLTLSKADYEKHKVYACEVTHQGLSSPVTKSFNRGEC
heavy 2: QVQLQQSGPQLVRPGASVKISCKASGYSFTSYWMHWVNQRPGQGLEWIGMIDPSYSETRLNQKFKDKATLTVDKSSSTAYMQLSSPTSEDSAVYYCALYGNYFDYWGQGTTLTVSSASTKGPSVFPLAPSSRSTSESTAALGCLVKDYFPEPVTVSWNSGALTSGVHTFPAVLQSSGLYSLSSVVTVPSSSLGTKTYTCNVDHKPSNTKVDKRVEPKSCDKTHTCPPCPAPELRRGPKVFLFPPKPKDTLMISRTPEVTCVVVDVSQEDPEVQFNWYVDGVEVHNAKTKPREEQFASTYRVVSVLTVLHQDWLNGKEYKCKVSNKGLPSSIEKTISKAKGQPREPQVYTLPPSREEMTKNQVSLTCLVKGFYPSDIAVEWESNGQPENNYKTTPPYLDSDGSFFLYSKLTVDKSRWQQGNVFSCSVMHEALHNHYTQESLSLSP
light 2: DIQMTQSSSSFSVSLGDRVTITCKASEDIYNRLAWYQQKPGNAPRLLISGATSLETGVPSRFSGSGSGKDYTLSITSLQTEDVATYYCQQYWSTPYTFGGGTKLEVKRTVAAPSVFIFPPSDEQLKSGTASVVCLLNNFYPREAKVQWKVDNALQSGNSQESVTEQDSKDSTYSLSSTLTLSKADYEKHKVYACEVTHQGLSSPVTKSFNRGEC
notes: See m38 on the IC17 arm
As for B3, in test [2], the affinity, expressed as Kd, was 7.4 µM.

B4: CE115HA056 one arm (CE115HA056-pE22Hh/GLS3000-k0//Kn010) (antibody, human IgG1, kappa, L234A L235A, N297A)
heavy: QVQLVESGGGVVQPGRSLRLSCAASGFTFSNAWMHWVRQAPGKGLEWVAQIKAKSNNYATYYAESVKGRFTISRDDSKNSLYLQMNSLKTEDTAVYYCRYAHYGAYYGVDAWGQGTTVTVSSASTKGPSVFPLAPSSKSTSGGTAALGCLVKDYFPEPVTVSWNSGALTSGVHTFPAVLQSSGLYSLSSVVTVPSSSLGTQTYICNVNHKPSNTKVDKKVEPKSCDKTHTCPPCPAPEAAGGPSVFLFPPKPKDTLMISRTPEVTCVVVDVSHEDPEVKFNWYVDGVEVHNAKTKPREEQYASTYRVVSVLTVLHQDWLNGKEYKCKVSNKALPAPIEKTISKAKGQPREPQVYTLPPSRCELTKNQVSLSCAVKGFYPSDIAVEWESNGQPENNYKTTPPVLDSDGSFFLVSKLTVDKSRWQQGNVFSCSVMHEALHNHYTQKSLSLSPDYKDDDDK
light: DIVMTQSPLSLPVTPGEPASISCRSSQSLVHSNRNTYLHWYQQKPGQAPRLLIYKVSNRFSGVPDRFSGSGSGTDFTLKISRVEAEDVGVYYCGQGTQVPYTFGQGTKLEIKRTVAAPSVFIFPPSDEQLKSGTASVVCLLNNFYPREAKVQWKVDNALQSGNSQESVTEQDSKDSTYSLSSTLTLSKADYEKHKVYACEVTHQGLSSPVTKSFNRGEC
chain: not shown
notes: One-arm format; also called one-arm antibody CE115HA056
Consider B4, for which the binding result in test [1] was “binds”.
